The record followed here is ChEMBL document CHEMBL1275444, “Fitness trade-offs in blaTEM evolution” (2008).

Substrate in the data set: CC1(C)S[C@@H]2[C@H](NC(=O)[C@H](N)c3ccccc3)C(=O)N2[C@H]1C(=O)O
The conditions noted are these: Escherichia coli.

Description: Ratio of Kcat to Km for Escherichia coli Beta-Lactamase TEM-1

B1: Beta-lactamase TEM-1 (Escherichia coli), Q4GY26 (protein)
chain: MSIQHFRVALIPFFAAFCLPVFAHPETLVKVKDAEDQLGARVGYIELDLNSGKILESFRPEERFPMMSTFKVLLCGAVLSRVDAGQEQLGRRIHYSQNDLVEYSPVTEKHLTDGMTVRELCSAAITMSDNTAANLLLTTIGGPKELTAFLHNMGDHVTRLDRWEPELNEAIPNDERDTTMPAAMATTLRKLLTGELLTLASRQQLIDWMEADKVAGPLLRSALPAGWFIADKSGAGERGSRGIIAALGPDGKPSRIVVIYTTGSQATMD
For B1, the kcat/Km came to 2.8 ×10⁷ /M/s.
